In patent US11407811B2, “Fusion protein, preparation method therefor and use thereof” (JIANGSU RONGTAI BIOTECH CO., LTD., priority 2017, dated 2022):

Tested on: neovascularization in premature rat retinopathy model
Assay: Neovascularization in premature rat retinopathy model (fluctuating oxygen-induced)
Type: in vivo
Experimental: A fluctuating oxygen-induced animal model was adopted, and newborn rats (within 12 hours) spontaneously delivered on the same day were randomly divided into three groups: an oxygen model group, an oxygen treatment group, and a normal control group. The oxygen model was subdivided into three model subgroups, which were placed in a semi-closed oxygen chamber made of plexiglass together with the treatment group. The medical oxygen was introduced into the chamber, and the oxygen concentration was adjusted to 80%±2% with an oxygen meter. After 24 hours, nitrogen gas was introduced into the oxygen chamber, and then the oxygen concentration was rapidly adjusted to 10%±2% and maintained for 24 hours. […] The oxygen concentration was monitored 8 times a day, and the ambient temperature in the chamber was controlled to 23° C.±2° C. […]
On day 14, after the rats was sacrificed with ether anesthesia, the eyeballs were removed and fixed in a 40 g/L paraformaldehyde solution for 24 hours. […] 10 sections were randomly selected from each eyeball to be stained with hematoxylin and eosin, and the nucleus of vascular endothelial cells that broke through the inner limiting membrane of the retina was counted (only the nucleus of vascular endothelial cells closely related to the inner limiting membrane were counted), and the average number of cells per section per eyeball was counted.

B1: Protein II: IgG2-Fc linked to antiangiogenesis polypeptide EDSM-Y via a flexible linker; SEQ ID NO: 17 (protein)
chain: ERKCCVECPPCPAPPVAGPSVFLFPPKPKDTLMISRTPEVTCVVVDVSHEDPEVQFNWYVDGVEVHNAKTKPREEQFNSTFRVVSVLTVVHQDWLNGKEYKCKVSNKGLPAPIEKTISKTKGQPREPQVYTLPPSREEMTKNQVSLTCLVKGFYPSDISVEWESNGQPENNYKTTPPMLDSDGSFFLYSKLTVDKSRWQQGNVFSCSVMHEALHNHYTQKSLSLSPGKGGGGSGGGGSGGGGSFQPVLHLVALNSPLSGGMRGIRGADFQCFQQARAVGLAGTFRAGGGGRGD
Nucleus number (nucleus count of vascular endothelial cells) (100 μg intravitreal injection on day 7, counted on day 14, per section per eyeball): 7.238 ± 1.194 | nucleus counts of retinal vascular endothelial cells (intravitreal injection, dose of 100, day 14, oxygen model group 27.452±2.110): 7.238±1.194
